Tests used:
[1] = target: ZF01 (two-finger zinc finger protein targeting AATTAG, YFP fusion) (Artificial Sequence); assay: EMSA; 20 mM bis-Tris propane pH 7.0, 100 mM NaCl, 5 mM MgCl2, 20 mM ZnSO4 (so in the source), room temperature 1 h; complementary strand SEQ 14 appears printed 3'-5'; settings: tags: YFP fused via (Gly2Ser)2 linker; Ni-NTA purified from E. coli BL21(DE3), pET21b-YFP-ZF (1)
Procedure: (§1) In order to identify whether the sequence specific binding protein prepared in Example 2 specifically binds to the target nucleic acid, a gel mobility shift assay was performed.
(§2) First, a 20-mer oligonucleotide including the nucleotide sequences AATTAG or AACTGA, which the sequence specific binding protein may specifically recognize, was synthesized (SEQ ID NO. 13 to SEQ ID NO. 16). Subsequently, each of the oligonucleotides of SEQ ID NOS. 13 and 14, SEQ ID NOS. 15 and 16 was annealed to prepare a target nucleic acid. The prepared target nucleic acid and the protein prepared in Example 2 was added to a buffer solution (including 10 ml of 20 mM bis-Tris propane (pH 7.0); 100 mM NaCl; 5 mM MgCl₂; 20 mM ZnSO₄; 10% glycerol; 0.1% Nonidet P-40; 5 mM DTT; and 0.10 mg/ml BSA), followed by reaction at room temperature for about 1 hour. The reactant was subjected to non-denaturing PAGE and as a result as shown in FIG. 6 and FIG. 7, it was identified that a combined product of a target nucleic acid 1 (a polynucleotide fragment including AATTAG) or 2 (a polynucleotide fragment including AACTGA) with ZF01 or ZF02 respectively recognizing the nucleic acid 1 or 2 was shorter in mobility distance on the gel than a negative control group (target nucleic acid).

[2] = target: ZF02 (two-finger zinc finger protein targeting AACTGA, YFP fusion) (Artificial Sequence); assay: EMSA; 20 mM bis-Tris propane pH 7.0, 100 mM NaCl, 5 mM MgCl2, 20 mM ZnSO4 (so in the source), room temperature 1 h; complementary strand SEQ 16 appears printed 3'-5'; settings: tags: YFP fused via (Gly2Ser)2 linker; Ni-NTA purified from E. coli BL21(DE3), pET21b-YFP-ZF (2)
ZF02 (two-finger zinc finger protein targeting AACTGA, YFP fusion) (Artificial Sequence), sequence (chain, as listed by the source): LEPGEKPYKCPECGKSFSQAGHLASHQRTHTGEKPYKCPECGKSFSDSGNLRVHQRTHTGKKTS
Procedure: as §1, §2

ZF01 (two-finger zinc finger protein targeting AATTAG, YFP fusion) (Artificial Sequence), sequence (chain, as listed by the source): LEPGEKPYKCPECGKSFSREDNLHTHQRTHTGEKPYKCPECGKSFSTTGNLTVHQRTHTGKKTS

| Binder | binding result [1] | binding result [2] |
| --- | --- | --- |
| target nucleic acid 1 (AATTAG 20-mer duplex) (dsDNA) DNA 1: TTTTTTTAATTAGTTTTTTT DNA 2: AAAAAAACTAATTAAAAAAA | binds | – |
| target nucleic acid 2 (AACTGA 20-mer duplex) (dsDNA) DNA 1: TTTTTTTAACTGATTTTTTT DNA 2: AAAAAAATCAGTTAAAAAAA | – | binds |

— US20130122577, “KIT INCLUDING SEQUENCE SPECIFIC BINDING PROTEIN AND METHOD AND DEVICE FOR DETERMINING NUCLEOTIDE SEQUENCE OF TARGET NUCLEIC ACID” (Samsung Electronics Co., Ltd., published 2013)
